Test results from IntAct's records for PubMed 23850456.

B1: Gremlin-2 (Mus musculus), O88273 (parent)
chain: MFWKLSLTLLLVAVLVKVAETRKNRPAGAIPSPYKDGSSNNSERWHHQIKEVLASSQEALVVTERKYLKSDWCKTQPLRQTVSEEGCRSRTILNRFCYGQCNSFYIPRHVKKEEDSFQSCAFCKPQRVTSVIVELECPGLDPPFRIKKIQKVKHCRCMSVNLSDSDKQ
partner: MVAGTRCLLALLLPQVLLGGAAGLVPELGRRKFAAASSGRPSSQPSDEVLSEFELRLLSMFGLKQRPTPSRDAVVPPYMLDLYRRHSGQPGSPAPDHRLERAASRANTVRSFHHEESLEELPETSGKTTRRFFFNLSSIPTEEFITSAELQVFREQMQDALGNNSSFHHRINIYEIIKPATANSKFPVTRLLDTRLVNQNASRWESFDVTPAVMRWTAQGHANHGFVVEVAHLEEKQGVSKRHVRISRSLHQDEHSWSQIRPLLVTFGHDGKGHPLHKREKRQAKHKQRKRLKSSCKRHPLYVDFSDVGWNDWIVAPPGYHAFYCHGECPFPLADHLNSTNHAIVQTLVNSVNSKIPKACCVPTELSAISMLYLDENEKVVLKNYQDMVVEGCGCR
B2: Gremlin-2 (Mus musculus), O88273 (parent)
chain: B1 chain
partner: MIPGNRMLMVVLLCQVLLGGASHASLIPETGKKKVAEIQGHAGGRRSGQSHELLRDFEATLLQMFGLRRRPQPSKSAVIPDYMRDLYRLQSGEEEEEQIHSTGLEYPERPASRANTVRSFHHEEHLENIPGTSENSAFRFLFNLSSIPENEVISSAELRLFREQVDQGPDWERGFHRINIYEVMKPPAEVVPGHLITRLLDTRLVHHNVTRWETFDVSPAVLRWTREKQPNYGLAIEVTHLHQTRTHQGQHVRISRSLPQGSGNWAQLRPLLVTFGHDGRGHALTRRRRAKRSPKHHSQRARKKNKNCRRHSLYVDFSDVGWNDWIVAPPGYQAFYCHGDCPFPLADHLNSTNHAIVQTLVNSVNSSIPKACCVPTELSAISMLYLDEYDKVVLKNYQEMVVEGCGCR

Variants of: B1
Settings: with bmp2_human BMP2, P12643

Row | Variant | effect of a mutation on the interaction
1 | MFWKLSLTLLLVAVLVKVAETRKNRPAGAIPSPYKDGSSNNSERWHHQIKEVLASSQEALVVTERKYLKSDACKTQPLRQTVSEEGCRSRTILNRFCYGQCNSFYIPRHVKKEEDSFQSCAFCKPQRVTSVIVELECPGLDPPFRIKKIQKVKHCRCMSVNLSDSDKQ | decreasing interaction strength
2 | MFWKLSLTLLLVAVLVKVAETRKNRPAGAIPSPYKDGSSNNSERWHHQIKEVLASSQEALVVTERKYLKSDWCKTQPLRQTVSEEGCRSRTILNRFCAGQCNSFYIPRHVKKEEDSFQSCAFCKPQRVTSVIVELECPGLDPPFRIKKIQKVKHCRCMSVNLSDSDKQ | decreasing interaction strength
3 | MFWKLSLTLLLVAVLVKVAETRKNRPAGAIPSPYKDGSSNNSERWHHQIKEVLASSQEALVVTERKYLKSDWCKTQPLRQTVSEEGCRSRTILNRFCYGQCNSAYIPRHVKKEEDSFQSCAFCKPQRVTSVIVELECPGLDPPFRIKKIQKVKHCRCMSVNLSDSDKQ | decreasing interaction strength

Second part, the variant after the results:

Row | effect of a mutation on the interaction | Variant
4 | decreasing interaction strength | MFWKLSLTLLLVAVLVKVAETRKNRPAGAIPSPYKDGSSNNSERWHHQIKEVLASSQEALVVTERKYLKSDWCKTQPLRQTVSEEGCRSRTILNRFCYGQCNSFYIPRHVKKEEDSAQSCAFCKPQRVTSVIVELECPGLDPPFRIKKIQKVKHCRCMSVNLSDSDKQ
5 | decreasing interaction strength | MFWKLSLTLLLVAVLVKVAETRKNRPAGAIPSPYKDGSSNNSERWHHQIKEVLASSQEALVVTERKYLKSDWCKTQPLRQTVSEEGCRSRTILNRFCYGQCNSFAIPRHVKKEEDSFQSCAFCKPQRVTSVIVELECPGLDPPFRIKKIQKVKHCRCMSVNLSDSDKQ

Variants of: B2
Settings: with bmp4_human BMP4, P12644

Row | Variant | effect of a mutation on the interaction
6 | MFWKLSLTLLLVAVLVKVAETRKNRPAGAIPSPYKDGSSNNSERWHHQIKEVLASSQEALVVTERKYLKSDWCKTQPLRQTVSEEGCRSRTILNRFCAGQCNSFYIPRHVKKEEDSFQSCAFCKPQRVTSVIVELECPGLDPPFRIKKIQKVKHCRCMSVNLSDSDKQ | decreasing interaction strength
7 | MFWKLSLTLLLVAVLVKVAETRKNRPAGAIPSPYKDGSSNNSERWHHQIKEVLASSQEALVVTERKYLKSDACKTQPLRQTVSEEGCRSRTILNRFCYGQCNSFYIPRHVKKEEDSFQSCAFCKPQRVTSVIVELECPGLDPPFRIKKIQKVKHCRCMSVNLSDSDKQ | decreasing interaction strength

Results, then the variant that gave them:

Row | effect of a mutation on the interaction | Variant
8 | decreasing interaction strength | MFWKLSLTLLLVAVLVKVAETRKNRPAGAIPSPYKDGSSNNSERWHHQIKEVLASSQEALVVTERKYLKSDWCKTQPLRQTVSEEGCRSRTILNRFCYGQCNSAYIPRHVKKEEDSFQSCAFCKPQRVTSVIVELECPGLDPPFRIKKIQKVKHCRCMSVNLSDSDKQ
9 | decreasing interaction strength | MFWKLSLTLLLVAVLVKVAETRKNRPAGAIPSPYKDGSSNNSERWHHQIKEVLASSQEALVVTERKYLKSDWCKTQPLRQTVSEEGCRSRTILNRFCYGQCNSFAIPRHVKKEEDSFQSCAFCKPQRVTSVIVELECPGLDPPFRIKKIQKVKHCRCMSVNLSDSDKQ
10 | decreasing interaction strength | MFWKLSLTLLLVAVLVKVAETRKNRPAGAIPSPYKDGSSNNSERWHHQIKEVLASSQEALVVTERKYLKSDWCKTQPLRQTVSEEGCRSRTILNRFCYGQCNSFYIPRHVKKEEDSAQSCAFCKPQRVTSVIVELECPGLDPPFRIKKIQKVKHCRCMSVNLSDSDKQ
